B1: Tat: conventional immunosuppressive HIV-1 trans-activator of transcription protein, recombinant (SEQ ID NO. 2) (protein)
chain: MEPVDPRLEPWKHPGSQPKTACTTCYCKKCCFHCQVCFTKKALGISYGRKKRRQRRRAPEDSQTHQVSPPKQPAPQFRGDPTGPKESKKKVERETETHPVD
modifications: Human immunodeficiency virus type 1

What was measured:
[1] = system: monocytes committed to the dendritic cell (DC) lineage; assay: Tat induction of CD86 on monocytes committed to the DC lineage (FACScan); format: cell-based, Human; conditions: committed DCs cultured overnight; Tat 50 nM, LPS 100 ng/mL; Control MFI 9
Procedure: An additional embodiment of the present invention is that Tat induces monocytes committed to the dendritic cell (DC) lineage to enlarge into activated, CD86+DC APCs (FIG. 1). Human monocytes enriched from PBMCs by Percoll density gradient separation and adherance to anti-CD14 coated magnetic beads (Dynabeads M-450, Dynal Biotech) were committed to differentiate into DCs through five days of culture in GM-CSF (100 ng/mL) and IL-4 (100 ng/mL). Committed DCs were cultured overnight either in medium alone (Control), LPS (100 ng/mL), or Tat (50 nM), after which they were stained with an anti-CD86 antibody (BD Pharmingen) and analyzed by FACScan for CD86 induction (left panel) or generalized activation (right panel, enlargement into box R2, shown for Tat-stimulated cells). The MFIs for CD86 expression are 9 (Control), 30 (LPS), and 187 (Tat), CD86 being a specific determinant of DC activation.

T cells = assay: T cell activation by Tat; format: cell-based; conditions: 50 nM Tat
CD4+T cells = assay: Direct apoptosis of CD4+ T cells by Tat; format: cell-based
antibody response to p24 = assay: Suppression of humoral immune response to HIV-1 p24 in immunized mice (ELISA); format: in vivo; conditions: 5 μg p24 + 5 μg Tat in complete Freund's adjuvant s.c.
Procedure: Tat suppresses the antigen-specific humoral immune response to HIV-1 p24 (FIG. 4). At week 0, mice (4 in each group) were immunized with 5 μg recombinant p24 protein (Chiron, Emeryville, Calif.) and either 5 μg recombinant Tat protein (PT) or 5 μg recombinant ox-Tat* protein (Ag) mixed in 100 μL complete Freund's adjuvant and administered subcutaneously in the flank. Following immunization, sera were collected every other week for 10 weeks and assayed for a specific antibody response to p24 by commercially available ELISA (Abbott Laboratories, Abbott Park, Ill.). […] This response was maintained for at least 6 weeks. The antibody titers at 6 weeks are approximately ten times greater than at week 2 due to maturation of the immune response.

Human monocytes = assay: Tat activation of monocytes/macrophages, Fas ligand (FasL) induction by flow cytometry; format: cell-based
Procedure: Tat activation of monocytes is dose-dependent and saturatable (FIG. 3). Human monocytes were cultured in increasing concentrations of recombinant Tat for six days at which time they were assayed for Fas ligand (FasL) induction as a measure of activation by using flow cytometry (FACScan, Becton Dickinson) to quantitate the intensity of staining (mean fluorescence index (MFI)) with an anti-Fas ligand monoclonal antibody (Nok 1, BD Pharmingen).

Human PBMCs = format: cell-based

| Molecule | MFI for CD86 expression [1] | T cell activation (T cells) | concentration required to initiate direct apoptosis of CD4+T cells (CD4+T cells) | duration for which suppression of p24 antibody response was maintained (antibody response to p24) | p24 antibody titer at 2 weeks (antibody response to p24; compared with ox-Tat* control) | concentration of Tat that triggers the effect on the macrophages (Human monocytes; FasL-inducing macrophage effect) | plateau stimulatory concentration for APCs (Human monocytes; six days culture, FasL MFI, higher concentrations did not increase MFI) | proliferation (stimulation index) relative to antigen treatment alone (Human PBMCs) | reversal of Tat suppression, proliferation as % of control (Human PBMCs; with further addition of anti-IL-10 and anti-IL-6 antibodies to the cultures) |
| --- | --- | --- | --- | --- | --- | --- | --- | --- | --- |
| lipopolysaccharide [LPS, reference compound] | 30 |  |  |  |  |  |  |  |  |
| B1 | 187 | could not be activated | approximately 500 nM | at least 6 weeks | completely suppressed | 500 pM | 50 nM | 141% | > 95 % of control |

From patent US20050208482A1, “Tat-based immunomodulatory compositions and methods for their discovery and use” (priority 2004, published 2005)
